Experimental data from patent US7592168B2, “Cephalosporin C acylase mutant and method for preparing 7-ACA using same” (Sandoz AG, priority 2003, dated 2009).

Assays:
[1] = Specific activity of CPC acylase to CPC (PDAB colorimetric assay); assay type: biochemical; settings: purified enzyme
Description: Each E. coli transformant was inoculated into 3 ml of a LB medium (1% Bacto-Tryptone, 0.5% Yeast Extract, 0.5% NaCl) containing 25 μg/ml of chloramphenicol and cultured at 30° C., 200 rpm for 16 hr with vigorous shaking. 50 μl of the culture solution was transformed to 50 ml of a new LB medium containing […] of chloramphenicol and further cultured at 25° C., 200 rpm for 48 hr with vigorous shaking. The culture solution was subjected to centrifugation at 4° C., 8,000 rpm for 10 min to separate a precipitate and the precipitate washed twice with 0.1 M Tris-HCl buffer solution (pH 8.0). This precipitate was suspended in 5 ml of the same buffer solution and subjected to ultra-sonication at 4° C. for 10 min. […]
The enzyme activity of CPC acylase mutant to CPC was measured according to the method described by Park et al. with minor modifications as follows (Park, et al., Kor. J. Appl. Microbiol. Biotechnol. 23: 559-564, 1995). A substrate solution was prepared by dissolving CPC (purity 74.2%; CJ Corp., Korea) in 0.1 M Tris-HCl buffer solution (pH 8.0) at a concentration of 20 mg/ml and adjusting pH to 8 with 1 N NaOH. […] After the reaction, the mixture (200 μl) of 50 mM NaOH and 20% glacial acetic acid (1:2) was added thereto to stop the reaction. 200 μl of the supernatant recovered from the reaction mixture by centrifugation was mixed with 40 μl of 0.5% (w/v) PDAB (p-dimethylaminobenzaldehyde; Sigma, USA) dissolved in a methanol and the reaction mixture was incubated at 37° C. for 10 min. After the reaction, the absorbance of reaction mixture was measured at 415 nm and quantified by comparing with a calibration curve of standard material. At this time, 1 unit has been defined as the amount of enzyme capable to produce 1 μmole of 7-ACA from CPC per minute. Meanwhile, the specific activity of CPC acylase mutant for CPC was determined by measuring the amount of protein remaining in the enzyme solution according to the method described by Bradford (Bradford, M., Anal. Biochem. 72: 248-254, 1976) and representing it as an active unit corresponding to 1 mg of protein. The reactivity of CPC acylase mutant to CPC was determined by the following steps of adding the same amount of protein to a reaction mixture, performing an enzyme reaction for a fixed time, measuring the amount of 7-ACA produced in the reaction mixture, and representing it as a relative value. The end-product inhibition by 7-ACA was determined by adding a protein corresponding to the same active unit to a reaction mixture, performing an enzyme reaction for a fixed time; measuring the amount of 7-ACA produced in the reaction mixture, and representing it as a relative value.

[2] = One-step conversion of CPC into 7-ACA (HPLC); assay type: biochemical; settings: 50 mM CPC, pH 8.5, 25° C., 1 hr, purified enzyme
Description: E. coli BL21(DE3) transformant containing each one of pET29-TnS5αβ and pET29-S12 plasmids of Example <3-2> was cultivated in 5 l of a LB broth containing 20 μg/ml of kanamycin and 2% lactose at 25° C., 200 rpm for 72 hr with vigorous shaking. Further, E. coli MC1061(pBCPC) containing the wild-type CPC acylase gene was also cultivated in 10 l of a LB broth containing 25 μg/ml of chloramphenicol at 25° C., 200 rpm for 48 hr with vigorous shaking. After then, the wild-type CPC acylase, TnS5αβ and S12 CPC acylase mutants were purified from each culture broth according to the same method as described in Example <2-1>, respectively. The purified protein obtained above was subjected to dialysis with 50 mM phosphate buffer solution (pH 8.5), and the diffusate obtained by dialysis was used for a CPC conversion reaction.
After CPC was dissolved in 50 mM phosphate buffer solution (pH 8.5) at a final concentration of 50 mM, the purified enzyme solution dissolved in the same buffer solution was added to the CPC solution obtained above at a final concentration of 5 unit/mg to prepare […] of the reaction mixture. The reaction mixture was stirred at 25° C. for 1 hr to induce a CPC conversion reaction. At this time, in order to prevent pH of the reaction mixture from decreasing during the conversion reaction, when pH of the reaction mixture was reached to 8.4, 0.2 N NaOH solution was automatically injected to the reaction mixture by a pH regulator to constantly maintain pH of the reaction mixture at 8.5. 100 μl of the reaction mixture was taken from at a fixed time during the conversion reaction and immediately subjected to a HPLC analysis to quantify the amount of CPC and 7-ACA in the reaction mixture. […] In addition, the flow rate of mobile phase was 0.6 ml/min, the sample (20 μl) to be injected was prepared by appropriately diluting the reaction mixture with 50 mM phosphate buffer solution (pH 8.5), and its absorbance was detected at UV 250 nm.

Molecule | specific activity to CPC as % of that to GL-7-ACA [1] | specific activity to CPC ([1]; pH 8.0) | Relative activity to CPC (fold) ([1]; relative to wild-type) | CPC conversion rate [2] [%] | specific activity to CPC, fold higher than that of the wild-type CPC acylase ([1]; pH 8.5) [fold] | specific activity to CPC ([1]; pH of the reaction mixture 8.5) [unit/mg protein] | 7-ACA yield [2] [%]
Wild-type: Pseudomonas sp. SE83 derived wild-type CPC acylase (AcyII), α-subunit SEQ ID NO: 4 and β-subunit SEQ ID NO: 5, from pBCPC (protein, Pseudomonas sp. SE83) alpha: TMAAKTDREALQAALPPLSGSLSIPGLSAPVRVQRDGWGIPHIKASGEADAYRALGFVHAQDRLFQMELTRRKALGRAAEWLGAEAAEADILVRRLGMEKVCRRDFEALGAEAKDMLRAYVAGVNAFLASGAPLPIEYGLLGAEPEPWEPWHSIAVMRRLGLLMGSVWFKLWRMLALPVVGAANALKLRYDDGGQDLLCIPPGVEAERLEADLAALRPAVDALLKAMGG beta: SNNWAVAPGRTATGRPILAGDPHRVFEIPGMYAQHHLACDRFDMIGLTVPGVPGFPHFAHNGKVAYCVTHAFMDIHDLYLEQFAEDGRTARFGNEFEPVAWRRDRIAVRGGADREFDIVETRHGPVIAGDPLEGAALTLRSVQFAETDLSFDCLTRMPGASTVAQLYDATRGWGLIDHNLVAGDVAGSIGHLVRARVPSRPRENGWLPVPGWSGEHEWRGWIPHEAMPRVIDPPGGLIVTANNRVVADDHPDYLCTDCHPPYRAERIMERLVASPAFAVDDAAAIHADTLSPHVGLLRARLEALGIQGSLPAEELRQTLIAWDGRMDAGSQAASAYNAFRRALTRLVTARSGLEQAIAHPFAAVPPGVSPQGQVWWAVPTLLRNDDAGMLKGWSWDEALSEALSVATQNLTGRGWGEEHRPRFTHPLSAQFPAWAALLNPVSRPIGGDGDTVLANGLVPSAGPEATYGALSRYVFDVGNWDNSRWVVFHGASGHPASPHYADQNAPWSDCAMVPMLYSWDRIAAEAVTSQELVPA | about 1.4% | about 0.33 unit/mg protein | 1.0 | 60 | – | – | –
S12: sixfold CPC acylase mutant, α-subunit SEQ ID NO: 7 and β-subunit SEQ ID NO: 8 (protein, alpha-subunit of mutatnt CPC acylase S12 protein; beta-subunit of mutatnt CPC acylase S12 protein) alpha: TMAAKTDREALQAALPPLSGSLSIPGLSAPVRVQRDGWGIPHIKASGEADAYRALGFVHAQDRLFQMELTRRKALGRAAEWLGAEAAEADILVRRLGMEKVCRRDFEALGAEAKDMLRAYAAGVNAFLASGAPLPIEYSLLGAEPEPWEPWHSIAVMRRLGLLMGSVWFKLWRMLALPVVGAANALKLRYDDGGQDLLCIPPGVEAERLEADLAALRPAVDALLKAMGG beta: SNNWAVAPGRTATGRPILAGDPHRVFEIPGMYAQHHLACDRFDMIGLTVPGVPGFPHNAHNGKVAYCVTHAFMDTHDLYLEQFAEDGRTARFGNEFEPVAWRRDRIAVRGGADREFDIVETRHGPVIAGDPLEGAALTLRSVQFAETDLSFDCLTRMPGASTVAQLYDATRGWGLVDHNLVAGDVAGSIGHLVRARVPSRPRENGWLPVPGWSGEHEWRGWIPHEAMPRVIDPPGGLIVTANNRVVADDHPDYLCTDCHPPYRAERIMERLVASPAFAVDDAAAIHADTLSPHVGLLRARLEALGIQGSLPAEELRQTLIAWDGRMDAGSQAASAYNAFRRALTRLVTARSGLEQAIAHPFAAVPPGVSPQGQVWWAVPTLLRNDDAGMLKGWSWDEALSEALSVATQNLTGRGWGEEHRPRFTHPLSAQFPAWAALLNPVSRPIGGDGDTVLANGLVPSAGPEATYGALCRYVFDVGNWDNSRWVVFHGASGHPASPHYADQNAPWSDCAMVPMLYSWDRIAAEAVTSQELVPA | – | – | – | 98 | 8.5 | 5.8 | ≥ 90
